Source: patent US20250282881A1 (SHANGHAI EPIMAB BIOTHERAPEUTICS, published 2025)
Residue numbers refer to the chain shown, from its start. In names and notes the source's numbering stands. Values belong to the binder of their own block, whether it stands above or below them.

Legend:
[1] = target: Cyno OX40 (protein analyte in BLI, Table 10) (cyno); test: BLI (Octet Red96), FIT1014-20a on AHC sensor, cyno OX40 as analyte
[2] = target: T1, human PD-L1 on cells (CHO-PD-L1, CHO-PD-L1-OS8) (human, UniProt Q9NZQ7 19-290); test: FACS on CHO-PD-L1 cells, Alexa Fluor 647 anti-human IgG, MFI
T1 construct: whole, on cells; also called PD-L1 over-expressing cells; CD274
T1 sequence (Q9NZQ7 19-290): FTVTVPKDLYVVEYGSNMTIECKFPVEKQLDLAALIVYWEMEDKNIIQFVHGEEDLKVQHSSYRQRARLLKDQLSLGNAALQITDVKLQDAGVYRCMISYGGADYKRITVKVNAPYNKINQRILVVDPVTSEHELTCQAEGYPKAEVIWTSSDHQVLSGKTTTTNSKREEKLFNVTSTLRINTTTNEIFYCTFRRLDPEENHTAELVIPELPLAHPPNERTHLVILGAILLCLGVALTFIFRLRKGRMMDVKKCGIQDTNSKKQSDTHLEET
Procedure: Cell binding affinity of PD-L1/OX40 antibodies were measured against CHO (ATCC, #CCL-61) overexpressing human PD-L1 (CHO-PD-L1) and CHO overexpressing OX40 (CHO-OX40), respectively. Briefly, 5×10⁵ cells were seeded into each well of a 96-well plate (Corning, #3799). Cells were centrifuged at 400 g for 5 minutes and supernatants were discarded. For each well, 100 μl of 3× serial dilution of antibodies starting from 100 nM were then added and mixed with the cells. After 60 minutes of 4° C. incubation, plates were washed several times to remove excess antibodies. […] After another round of centrifugation and washing, cells were resuspended in FACS buffer for reading on a CytoFLEX Flow Cytometer (Beckman Coulter). Median Fluorescence Intensity (MFI) readouts were plotted against antibody concentration and analyzed with GraphPad Prism 8.0.

[3] = target: T1, human PD-L1 on cells (CHO-PD-L1, …); test: cell-based receptor blocking assay, FACS: antibody against PD-1-mFc binding to CHO-PD-L1 cells, anti-mouse IgG detection
Procedure: Blocking of PD-1/PD-L1 binding was assessed in a cell based receptor blocking assay (RBA), 100 μl of 2×10⁵ cells/well of CHO-PD-L1 cells were added to a 96-well round-bottomed plate (Corning, Cat #3799), 50 μl serial diluted of antibody at 0.016 nM to 50 nM and 50 μl of 50 μg/ml PD-1-mFc (Novoprotein, #C754) were added to each well, mixed gently then incubated at 4° C. for 1 hour. The cells were washed and stained by Alexa Fluor® 647 anti-mouse IgG (1:500, Jackson ImmunoResearch, #115-606-008). Signals were read out by FACS and curves were fitted by GraphPad Prism 8.0.

[4] = target: recombinant cyno PD-L1-his protein (cyno, UniProt G7PSE7 19-239); test: BLI (Octet Red96), FIT1014-20a on AHC sensor, cyno PD-L1-his as analyte
recombinant cyno PD-L1-his protein, sequence (G7PSE7 entry or part of it): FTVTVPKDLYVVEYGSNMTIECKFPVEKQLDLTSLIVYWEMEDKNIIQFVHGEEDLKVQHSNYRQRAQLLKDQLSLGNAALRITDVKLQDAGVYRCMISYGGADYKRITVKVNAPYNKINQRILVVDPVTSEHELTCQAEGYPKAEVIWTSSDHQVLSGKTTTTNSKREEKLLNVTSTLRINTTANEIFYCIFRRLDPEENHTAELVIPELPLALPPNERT
Procedure: (§1) The PD-L1 binding activities of FIT1014-20a were detected by biolayer interferometry using an Octet® Red sensing device (ForteBio, Red96). […] The association and dissociation curves were fitted to a 1:1 Langmuir binding model using FortéBio Data Analysis software (Pall) to produce kinetic rate constants Kon and Koff. The equilibrium dissociation constant KD (M) of the reaction between antibodies and related target proteins was then calculated by KD=koff/kon.

[5] = target: T2, recombinant human PD-L1/His fusion protein (Novoprotein, Cat. No. C315) (human, UniProt Q9NZQ7 19-239); test: BLI (Octet Red96), FIT1014-20a on AHC sensor, human PD-L1-his as analyte
T2 construct: also called recombinant human PD-L1-his protein
T2 sequence (Q9NZQ7 19-239 limits assumed): as the sequence (G7PSE7 entry or part of it) above, with T33A, S34A, N62S, Q68R, R82Q, L173F, A185T, I192T, L215H counted along it
Procedure: as §1

[6] = target: T2, recombinant human PD-L1/His fusion …; test: BLI (Octet RED96), antibody on AHC sensor, PD-L1/His as analyte, test group 1
Description: Based on titer and purity, 10 of the 50 humanized antibodies were selected and further assayed in two groups for dissociation rate constant (koff) as shown in Table 7. Chimeric antibody EM0005-86c having VH/VL sequences identical to EM0005-mAb86 (as provided in Table 6) was used as a positive control in each group and served as a basis for normalization. Briefly, antibodies were characterized for affinities and binding kinetics by Octet® RED96 biolayer interferometry (Pall FortéBio LLC). Anti-hIgG Fc Capture (AHC) Biosensors (Pall) with antibody captured at a concentration of 100 nM for 120 seconds were dipped into running buffer (1× pH 7.2 PBS, 0.05% Tween 20, 0.1% BSA) for 60 seconds to check the baseline, then dipped into a single concentration of recombinant human PD-L1/His fusion protein (Novoprotein, Cat. No. C315) to measure binding for 200 seconds, followed by dipped into running buffer to measure dissociation for 600 seconds. The association and dissociation curves were fitted to a 1:1 Langmuir binding model using FortéBio Data Analysis software (Pall). The off-rate ratios shown in Table 7 were calculated by off-rate of a humanized antibody to that of EM0005-86c in the same test group. The off-rate ratio serves as a normalized index, so that the humanized antibodies can be compared to one another across test groups. The lower off-rate ratio indicates higher affinity of an antibody for human PD-L1. HuEM0005-86-21 was selected for further investigation based on the purity and off-rate data.

[7] = target: T3, recombinant human OX40/His fusion protein (Novoprotein, CB17) (human, UniProt P43489 29-216); test: BLI (Octet RED96), antibody on AHC sensor, OX40/His as analyte, test group 3
T3 construct: Bought protein
T3 sequence: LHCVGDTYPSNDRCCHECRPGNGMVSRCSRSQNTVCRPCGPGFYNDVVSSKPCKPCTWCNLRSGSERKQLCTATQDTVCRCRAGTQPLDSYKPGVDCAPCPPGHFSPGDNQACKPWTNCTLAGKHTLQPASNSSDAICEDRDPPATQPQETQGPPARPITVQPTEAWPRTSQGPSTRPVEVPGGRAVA
Procedure: All 17 antibodies in Table 4 were expressed by transient transfection of HEK293 cell, purified by Protein A chromatography, and assayed for and ranked by dissociation rate constant (koff). Briefly, antibodies binding affinities and kinetics were characterized by Octet® RED96 biolayer interferometry (Pall FortéBio LLC). Antibodies were captured by Anti-hIgG Fc Capture (AHC) Biosensors (Pall) at a concentration of 100 nM for 120 seconds. After that, sensors were dipped into running buffer (1× pH 7.2 PBS, 0.05% Tween 20, 0.1% BSA) for 60 seconds to check the baseline, then dipped into recombinant human OX40/His fusion protein (Novoprotein, CB17) at assigned concentration for 200 seconds to measure binding, followed by dipped into running buffer for 600 seconds for dissociation. The assay was conducted in four test groups (as listed in Table 5) all containing the EM1007-044c chimeric antibody as the basis for normalization. The association and dissociation curves were fitted to a 1:1 Langmuir binding model using ForteBio Data Analysis software (Pall) to obtain the off-rate constants as shown in Table 5 below. The off-rate of each antibody was compared to that of the EM1007-mAb044c chimeric antibody in the same test group obtained in parallel to produce the corresponding off-rate ratio, serving as a normalized index. […]

B3: HuEM0005-86-21 (antibody, human IgG1, kappa, L234A L235A, V domains shown)
VH: QVQLVQSGSELKKPGASVKVSCKASGYTFTTYGINWVRQAPGQGLEWMGYIYIGNAYTEYNEKFKGRFVFSLDTSVSTAYLQICSLKAEDTAVYYCARDLMVIAPKTMDYWGQGTTVTVSS
VL: DIQMTQSPSSVSASVGDRVTITCKASQDVGTAVAWYQQKPGKAPKLLIYWASTRHTGVPSRFSGSGSGTDFTLTISSLQPEDFATYYCQQYSSYPYTFGGGTKVEIKR
notes: Humanized anti-PD-L1
Off-Rate Ratio to EM0005-86c [6]: 88% | koff [6]: 0.000239 s⁻¹

B5: EM1007-mAb044c-13 (antibody, human IgG1, kappa, L234A L235A, V domains shown)
VH: EVQLVQSGAEVKKPGSSVKVSCKASGGTFSSSWMNWVRQAPGQGLEWMGRIYPGDEITNYNGKFKDRVTITADKSTSTAYMELSSLRSEDTAVYYCARDLLMPYWGQGTLVTVSS
VL: DIVMTQTAFSNPVTLGTSASISCRSSKSLLYSNGITYLYWYLQKPGQSPHLLIYQMSNLAPGVPDRFSSSGSGTDFTLRISRVEAEDVGIYYCAQNLELPFTFGSGTKLEIKR
Normalized Index (off-rate ratio to EM1007-mAb044c) [7]: 427% | koff [7]: 0.0013 s⁻¹

B6: HuEM1007-044-4 (antibody, human IgG1, kappa, L234A L235A, V domains shown)
VH: B5 VH with G27H, R38K, Q43K, M48I, R67K, I70L
VL: DIVMTQTPLSLPVTPGEPASISCRSSKSLLYSNGITYLYWYLQKPGQSPQLLIYQMSNLAPGVPDRFSGSGSGTDFTLKISRVEAEDVGVYYCAQNLELPFTFGQGTKLEIKR
notes: Humanized anti-OX40, human IgG1 LALA / kappa
Normalized Index (off-rate ratio to EM1007-mAb044c) [7]: 486% | koff [7]: 0.00148 s⁻¹

Now from value to binder:

Kd [1]: 5.13 nM | koff [1]: 0.0004 s⁻¹ | kon [1]: 78000 M⁻¹ s⁻¹ | EC50 (read off the curve) [2]: ~1 nM | IC50 (read off the curve) [3]: ~0.8 nM | Kd [4]: 0.587 nM | koff [4]: 0.000276 s⁻¹ | kon [4]: 470000 M⁻¹ s⁻¹ | Kd [5]: 0.255 nM | koff [5]: 0.000158 s⁻¹ | kon [5]: 620000 M⁻¹ s⁻¹
B1: FIT1014-20a (bispecific antibody, human IgG1, kappa, L234A L235A)
chain 1: DIQMTQSPSSVSASVGDRVTITCKASQDVGTAVAWYQQKPGKAPKLLIYWASTRHTGVPSRFSGSGSGTDFTLTISSLQPEDFATYYCQQYSSYPYTFGGGTKVEIKRTVAAPSVFIFPPSDEQLKSGTASVVCLLNNFYPREAKVQWKVDNALQSGNSQESVTEQDSKDSTYSLSSTLTLSKADYEKHKVYACEVTHQGLSSPVTKSFNRGECEVQLQQSGAEVKKPGSSVKVSCKASGHAFSSSWMNWVKQRPGKGLEWIGRIYPGDEITNYNAKFKDKATLTADKSTSTAYMELSSLRSEDTAVYYCARDLLMPYWGQGTLVTVSSASTKGPSVFPLAPSSKSTSGGTAALGCLVKDYFPEPVTVSWNSGALTSGVHTFPAVLQSSGLYSLSSVVTVPSSSLGTQTYICNVNHKPSNTKVDKKVEPKSCDKTHTCPPCPAPEAAGGPSVFLFPPKPKDTLYITREPEVTCVVVDVSHEDPEVKFNWYVDGVEVHNAKTKPREEQYNSTYRVVSVLTVLHQDWLNGKEYKCKVSNKALPAPIEKTISKAKGQPREPQVYTLPPSREEMTKNQVSLTCLVKGFYPSDIAVEWESNGQPENNYKTTPPVLDSDGSFFLYSKLTVDKSRWQQGNVFSCSVMHEALHNHYTQKSLSLSPGK
chain 2: EVQLVQSGSELKKPGASVKVSCKASGYTFTTYGINWVRQAPGQGLEWMGYIYIGNAYTEYNEKFKGRFVFSLDTSVSTAYLQISSLKAEDTAVYYCARDLMVIAPKTMDYWGQGTTVTVSSASTKGPSVFPLAPSSKSTSGGTAALGCLVKDYFPEPVTVSWNSGALTSGVHTFPAVLQSSGLYSLSSVVTVPSSSLGTQTYICNVNHKPSNTKVDKKVEPKSC
chain 3: DIVMTQTPLSLPVTPGEPASISCRSSKSLLYSNAITYLYWYLQKPGQSPQLLIYQMSNLAPGVPDRFSSSGSGTDFTLKISRVEAEDVGVYYCAQNLELPFTFGQGTKLEIKRTVAAPSVFIFPPSDEQLKSGTASVVCLLNNFYPREAKVQWKVDNALQSGNSQESVTEQDSKDSTYSLSSTLTLSKADYEKHKVYACEVTHQGLSSPVTKSFNRGEC
notes: Hexamer of three component polypeptide chains (two of each); outer Fab anti-PD-L1 (HuEM0005-86-64), inner Fab anti-OX40 (HuEM1007-44-16); also called FIT1014-20a (YTE); PD-L1/OX40 FIT-Ig

EC50 (read off the curve) [2]: ~0.8 nM | IC50 (read off the curve) [3]: ~0.8 nM
B2: HuEM0005-86-64 (antibody, human IgG1, kappa, L234A L235A, V domains shown)
VH: B3 VH with Q1E, C84S
VL: B3 VL
notes: Humanized anti-PD-L1; same as HuEM0005-86-21 except Q1E and C82aS (Kabat) in VH; also called parental anti-PD-L1 monoclonal antibody; parental PD-L1 antibody

Off-Rate Ratio to EM0005-86c [6]: 69% | koff [6]: 0.000188 s⁻¹
B4: EM0005-86c-1 (antibody, V domains shown)
VH: QVQLQQSGAELVRPGSSVKMSCKTSGYTFTTYGINWVKQRPGQGLEWIGYIYIGNAYTEYNEKFKGKATLTSDPSSRTAYMQLSSLTSEDSAIYFCARDLMVIAPKTMDYWGQGTSVTVSS
VL: DIQMNQSHKFMSTSVGDRVSITCKASQDVGTAVAWYQQKPGQSPKLLIYWASTRHTGVPDRFTGGGSGTDFTLTISNVQSEDLADYFCQQYSSYPYTFGGGTKLEMK
notes: Chimeric variant of EM0005-86c
